Measured values taken from US8691772B2, “HSP60, HSP60 peptides and T cell vaccines for immunomodulation” (Yeda Research and Development Co. Ltd., priority 2005, dated 2014).

Experiments:
DTH = DTH assay (adoptive transfer, oxazolone); assay type: in vivo, BALB/c mice; details: oxazolone-reactive lymph node cells exposed in vitro to 1 μg/ml for 1 hr; ear swelling 24 hr
Protocol: DTH assays. BALB/c mice (females; 1.5 months of age) were sensitized by painting of their shaved abdominal walls with Oxazolone (2%) emulsified in 100 μl of acetone/olive oil (Sigma-Aldrich). On day 5, mice were sacrificed, their draining (inguinal, mesenteric, and cervical) lymph nodes were collected, and a single cell suspension was prepared. The cells were treated with HSP60 (1 μg/ml; 1 hr; tissue culture conditions), washed, and injected (5×10^7 cells per mouse) i.v. into the tails of naive mice (at least 6 mice per group). Painting of the earlobes with oxazolone (10 μl of 0.5% in acetone/olive oil), which generates a DTH response, was performed immediately after cell inoculation. The area of the ears that was painted was measured before challenge and 24 hr later with a micrometer. Changes in earlobe thickness are indicative of DTH reactivity. All animal studies were performed in compliance with and were approved by laws and animal welfare guidelines of The Weizmann Institute of Science (IACUC).

CD4^+CD25^+ T cells = experiment: Co-culture of treated CD4+CD25+ T cells with CD4+CD25- T cells; assay type: cell-based, human
[1] = CD4+CD25+ treated 1 ng/ml 2 hr, co-cultured with CD4+CD25- on anti-CD3, 24 hr

B1: HSP60: recombinant human heat shock protein 60 (StressGen Biotechnologies) (protein)
chain: AKDVKFGADARALMLQGVDLLADAVAVTMGPKGRTVIIEQSWGSPKVTKDGVTVAKSIDLKDKYKNIGAKLVQDVANNTNEEAGDGTTTATVLARSIAKEGFEKISKGANPVEIRRGVMLAVDAVIAELKKQSKPVTTPEEIAQVATISANGDKEIGNIISDAMKKVGRKGVITVKDGKTLNDELEIIEGMKFDRGYISPYFINTSKGQKCEFQDAYVLLSEKKISSIQSIVPALEIANAHRKPLVIIAEDVDGEALSTLVLNRLKVGLQVVAVKAPGFGDNRKNQLKDMAIATGGAVFGEEGLTLNLEDVQPHDLGKVGEVIVTKDDAMLLKGKGDKAQIEKRIQEIIEQLDVTTSEYEKEKLNERLAKLSDGVAVLKVGGTSDVEVNEKKDRVTDALNATRAAVEEGIVLGGGCALLRCIPALDSLTPANEDQKIGIEIIKRTLKIPAMTIAKNAGVEGSLIVEKIMQSSSEVGYDAMAGDFVNMVEKGIIDPTKVVRTALLDAAGVASLLTTAEVVVTEIPKEEKDPGMGAMGGMGGGMGGGMF
inhibition of ability to adoptively transfer DTH (DTH): 50% | anti-CD3-induced proliferation of CD4+CD25- T cells in co-culture (CD4^+CD25^+ T cells; 24 hours): did not suppress anti-CD3-induced proliferation | anti-CD3-induced proliferation of CD4+CD25- T cells in co-culture (CD4^+CD25^+ T cells; 96 hours): significant inhibition of proliferation | IFN-γ and TNF-α secretion in co-culture (CD4^+CD25^+ T cells; [1]): significantly enhanced the down-regulation of secretion of IFN-γ and TNF-α secretion | IL-10 and TGF-β secretion in co-culture (CD4^+CD25^+ T cells; [1]): up-regulated the secretion of IL-10 and TGF-β in the co-cultures | inhibition of IFN-γ and TNF-α secretion of CD4+CD25- T cells by supernatants of treated Tregs (CD4^+CD25^+ T cells; HSP60 1 ng/ml, 2 hr, supernatants after 24 hr on anti-CD3): about 30%
